The target in assay [1] is T1, GPIIb-IIIa (Homo sapiens, UniProt P05106+P08514).
T1 construct: GPIIb-IIIa from platelet lysates is purified by the following procedure; from tissue
Kind of assay: Competition assay: biotinylated Fn binding to purified GPIIb-IIIa in presence of synthetic polypeptides. The following applies: 250 μM polypeptide, 10 nM biotinylated Fn; FIG. 9.
Method: (SEQ ID NO 11) as shown by the line with closed squares. […] The competition assays were performed in microtiter wells of a 96-well plate as described in Example 9b(1). Briefly, microtiter wells coated with purified GPIIb-IIIa receptor were maintained with 10 nM biotinylated Fn for 2 hours at room temperature in the presence of varying concentrations of D-11-T and RGDS.
The competition assay was performed by first admixing into individual wells of a 96 well microtiter plate (Immunlon, Dynatech) 10 μg/ml of purified GPIIb-IIIa, prepared in Example 1, diluted in HEPES-saline buffer, pH 7.4, consisting of 10 mM HEPES, 150 mM NaCl, 1 mM CaCl2 and 1 mM MgCl2. […]
The Fn-peptide admixtures were maintained in GPIIb-IIIa-coated wells for 2 hours at room temperature to allow the biotinylated Fn to bind to the receptor. Following this maintenance period, the reacted wells were washed as described above and the amount of biotinylated Fn bound to GPIIb-IIIa was determined by admixing 0.1 ml avidin bound to biotinylated horseradish peroxidase H (Hrp) (Sigma, St. Louis, Mo.) at a 1:2000 dilution to form an avidin-biotinylated Fn admixture. […] After maintaining the color developing-reaction admixture for 10 minutes at 20° C., the reaction was stopped with the admixture of 2N H2 SO4, and the stopped reactions were measured for absorbance as described in Example 3a. […]

Assay [2] concerns the target T1, GPIIb-IIIa. Briefly: Interaction of 125I-labelled ligands with GPIIb-IIIa coated microtiter wells (Table 3). The assay is classed as binding. Conditions: 125I-labelled ligand. The method, then: Incubate the GPIIb-IIIa with plate for 1 hour at room temperature, then dump unbound and block with 150 ul of 5% BSA in the same buffer for 1 hour at room temperature. Wash three times with 150 μl of Tyrode's buffer with 5 mM HEPES, 1 mM MgCl2 1 mg/ml dextrose, 1 mg/ml BSA. Add 50 μl of ^125 I fusion protein (125 mg/ml) at varied concentration (4×10^-7 to 1×10^-10 M). Incubate 4 hours to overnight at room temperature (with lead shield).
Carefully remove radioactive samples and wash 3 times with 150 μl Tyrodes with 5 mM HEPES, 1 mM MgCl2, 1 mg/ml dextrose, 1 mg/ml BSA. Count with a Gamma Counter and elute by boiling in SDS-PAGE loading Buffer.
To determine if the insert coded polypeptide containing fibronectin residues 1255-1456 bound GPIIb-IIIa, the capacity of microtiter wells coated with purified GPIIb-IIIa to bind the radiolabelled fusion-protein preparation was ascertained (Table 3). In addition, the radiolabelled material bound to the insolubilized GPIIb-IIIa was recovered and analyzed by SDS-PAGE followed by radioautography. […] The isolated protein products were a mixture of insert coded polypeptides containing fusion protein and maltose binding protein breakdown products. only those bands containing the insert-coded polypeptide bound to the insolubilized GPIIb-IIIa and that binding was inhibitable by either EDTA or the monoclonal antibody FnI-16.

Assay [3] deals with GPIIb-IIIa (Homo sapiens (Human)) (UniProt P08514). Kind of assay: 125I-labelled ligand on GPIIb-IIIa-coated wells; inhibitor 2 mM GDTA (so in the source).
Assay [4] shares this target. Briefly: 125I-labelled ligand on GPIIb-IIIa-coated wells; inhibitor Mab 16.12.
Assay [5] shares this target. Briefly: 125I-labelled ligand on GPIIb-IIIa-coated wells; no inhibitor.
Assay [6] shares this target. Briefly: 10 nM biotinylated Fn on GPIIb-IIIa-coated wells, avidin-HRP detection.
For assay [7] the target is unchanged. Kind of assay: competition with 10 nM biotinylated Fn on GPIIb-IIIa-coated wells.

This note sets out measurements from patent US5773574A, “Polypeptides for promoting cell attachment” (The Scripps Research Institute, priority 1991, dated 1998).

Residues, ends and D or L forms follow the SMILES beside them.

On to `CC[C@H](C)[C@H](NC(=O)[C@H](CO)NC(=O)[C@H](CC(N)=O)NC(=O)[C@H](CCCNC(=N)N)NC(=O)[C@H](CO)NC(=O)[C@H](Cc1c[nH]cn1)NC(=O)[C@@H]1CCCN1C(=O)[C@@H](NC(=O)[C@H](CCCNC(=N)N)NC(=O)[C@@H](N)CC(=O)O)C(C)C)C(=O)N[C@H](C(=O)O)[C@@H](C)O` [D-11-T] (H-DRVPHSRNSIT-OH), for which, on GPIIb-IIIa [1], the “inhibition of binding of biotinylated Fn to GPIIb-IIIa” value is “greater than 80%”.
For “Fibronectin: intact Fn isolated from fresh human citrated plasma on gelatin-sepharose”, the “Counts ×10^-3” value is 8 Counts ×10^-3 with GPIIb-IIIa [2] (inhibitor 2 mM EDTA), 12 Counts ×10^-3 in the assay with GPIIb-IIIa [2] (inhibitor Mab 16.12) and 42 Counts ×10^-3 with GPIIb-IIIa [2] (no inhibitor).
On to “fibronectin (Fn), intact, isolated from fresh human citrated plasma (from UniProt P02751) (ligand)”, for which the Counts ×10^-3 (counts ×10^-3) in assay [3] is 8; in assay [4], 12; in assay [5], 42. The absorbance at 490 nm (absorbance at 490 nm) in assay [6] was 2.7.
polypeptide DRVPHSR yielded a percent inhibition of control binding at 200 µM polypeptide in assay [7] of 35 to 40%.
